Experimental data from patent US20250144205A1, “COMPOSITIONS AND METHODS FOR TREATING INFECTIOUS DISEASES” (priority 2022, published 2025).

Key:
[1] = system: TSE-induced lung injury (TSE-LI); experiment: chronic tobacco smoke exposure induced lung injury (TSE-LI) in wild-type mice; assay type: in vivo; conditions: for MUC5AC (M5Ac) expression (lung mRNA by qPCR, IHC) / FOXA2 mRNA (qPCR) / surfactant protein-C (SP-C) mRNA (qPCR): WT mice with TSE-LI, 2.5 mg/kg IP 5 days a week for 4 weeks; for MUC5AC (M5Ac) expression (lung mRNA by qPCR, IHC): FIG. 12A, 12D; for FOXA2 mRNA (qPCR): FIG. 12B; for surfactant protein-C (SP-C) mRNA (qPCR): FIG. 12C; for chronic TS exposure (TSE) induced lung injury (TSE-LI): WT mice, 2.5 mg/kg IP 5 days a week for 4 weeks after 16 weeks TSE
Description: Recombinant full-length U5a protein (U5a^FL), extracellular domain of U5a^FL (U5a^ECD) and U5a^ECD-specific monoclonal antibody (U5a^mAb, the 17C9 1 anti-U5a antibody comprising the sequences of SEQ ID NOs. 204 and 211) mitigated chronic TS exposure (TSE) induced lung injury (TSE-LI) in wild-type (WT) mice. WT mice were kept in ambient AIR or exposed to tobacco smoke (TSE) for 4 h/day 5 days a week. After 16 weeks, WT mice with TSE-LI were left untreated (None) or treated with 2.5 mg/kg of U5a^FL, U5a^ECD and U5amAb 5 days a week for 4 weeks by IP injection. Total lung RNA were analyzed for MUC5AC (M5Ac) (FIG. 12A), FOXA2 (FIG. 12B) and surfactant protein-C(SP-C) (FIG. 12C) mRNA by qPCR. Lung sections of mice treated as in FIG. 12A were subjected to IHC analysis for M5Ac (FIG. 12D). We found increased expression of U5a in AECs and ATII cells in lungs of patients with COPD and mice with TSE-LI. […] In addition, increased surfactant protein-C(SP-C) indicates improved survival of ATII cells, which is otherwise reduced due to increased TSE-induced senescence and apoptosis of ATII cells seen in mice with TSE-LI left untreated.

rSARS-CoV-2/mCherry-Nluc = assay type: in vivo, K18 hACE2 transgenic mice; conditions: for virus titration in lungs (viral titers by plaque assay): 2.5 mg/kg i.p. once daily, compared to the mock groups, FIG. 8A; for body weight and survival: mouse, in vivo

Molecule	MUC5AC (M5Ac) expression (lung mRNA by qPCR, IHC) [1]	FOXA2 mRNA (qPCR) [1]	surfactant protein-C (SP-C) mRNA (qPCR) [1]	chronic TS exposure (TSE) induced lung injury (TSE-LI) [1]	virus titration in lungs (viral titers by plaque assay) (rSARS-CoV-2/mCherry-Nluc)	body weight and survival (rSARS-CoV-2/mCherry-Nluc)
U5a^mAb: U5a^ECD-specific monoclonal antibody, the 17C9 1 anti-U5a antibody comprising the sequences of SEQ ID NOs. 204 and 211 (antibody) heavy: QVQLQQPGAELVKPGASVKMSCKASGYTFTSYWITWVKQRPGQGLEWIGDIYPGSGSTTYNEKFKSKATLTVDTSSSTAYMQLSSLTSEDSAVYYCARRHYGSSSAWFAYWGQGTLVTVSAAKTTPPSVYPLAPGSAAQTNSMVTLGCLVKGYFPEPVTVTWNSGSLSSGVHTFPAVLQSDLYTLSSSVTVPSSTWPSQTVTCNVAHPASSTKVDKKIVPRDCGCKPCICTVPEVSSVFIFPPKPKDVLTITLTPKVTCVVVDISKDDPEVQFSWFVDDVEVHTAQTKPREEQINSTFRSVSELPIMHQDWLNGKEFKCRVNSAAFPAPIEKTISKTKGRPKAPQVYTIPPPKEQMAKDKVSLTCMITNFFPEDITVEWQWNGQPAENYKNTQPIMDTDGSYFVYSKLNVQKSNWEAGNTFTCSVLHEGLHNHHTEKSLSHSPGK light: DIQMTQTTSSLSASLGDRVTISCSASQGIRNYLNWYQQKPDGTVKLLIYYTSSLHSGVPSRFSGSGSGTDYSLTISNLEPEDIATYYCQQYSKLPFTFGSGTKLEIKRADAAPTVSIFPPSSEQLTSGGASVVCFLNNFYPKDINVKWKIDGSERQNGVLNSWTDQDSKDSTYSMSSTLTLTKDEYERHNSYTCEATHKTSTSPIVKSFNRNEC	significantly inhibits	inducing	increased	mitigated		
M^9ECD: extracellular domain (ECD) fragment of recombinant M9 (MEGF9); ECD of MEGF9 given as SEQ ID NO: 102 (protein, listed as Homo sapiens) MGWSCIILFLVATATGVHSAAVASAASAGNVTGGGGAAGQVDASPGPGLRGEPSHPFPRATAPTAQAPRTGPPRATVHRPLAATSPAQSPETTPLWATAGPSSTTFQAPLGPSPTTPPAAERTSTTSQAPTRPAPTTLSTTTGPAPTTPVATTVPAPTTPRTPTPDLPSSSNSSVLPTPPATEAPSSPPPGHQWPVAKMPQKYLGKYACESNLKSKYLPLTQPVMNLRVSEAVKTEYVCNCSVVGSLNVNRCNQTTGQCECRPGYQGLHCETCKEGFYLNYTSGLCQPCDCSPHGALSIPCNSSGKCQCKVGVIGSICDRCQDGYYGFSKNGCLPCQCNNRSASCDALTGACLNCQENSKGNHCEECKEGFYQSPDATKECLRCPCSAVTSTGSCSIKSSELEPECDQCKDGYIGPNCNKCENGYYNFDSICRKCQCHGHVDPVKTPKICKPESGECINCLHNTTGFWCENCLEGYVHDLEGNCIKKEVILPTPEGSTILVSNASLTTSVPTPVINSTFTPTTLQTIFSVSTSENSTSALADVSWTQFN					clear trend of decreased viral titers	remarkable improvement
U5a^FL: Recombinant full-length U5a protein (uncoordinated receptor 5A); full-length human UNC5A is SEQ ID NO: 5 (protein, listed as Homo sapiens) MAVRPGLWPALLGIVLAAWLRGSGAQQSATVANPVPGANPDLLPHFLVEPEDVYIVKNKPVLLVCKAVPATQIFFKCNGEWVRQVDHVIERSTDGSSGLPTMEVRINVSRQQVEKVFGLEEYWCQCVAWSSSGTTKSQKAYIRIAYLRKNFEQEPLAKEVSLEQGIVLPCRPPEGIPPAEVEWLRNEDLVDPSLDPNVYITREHSLVVRQARLADTANYTCVAKNIVARRRSASAAVIVYVDGSWSPWSKWSACGLDCTHWRSRECSDPAPRNGGEECQGTDLDTRNCTSDLCVHTASGPEDVALYVGLIAVAVCLVLLLLVLILVYCRKKEGLDSDVADSSILTSGFQPVSIKPSKADNPHLLTIQPDLSTTTTTYQGSLCPRQDGPSPKFQLTNGHLLSPLGGGRHTLHHSSPTSEAEEFVSRLSTQNYFRSLPRGTSNMTYGTFNFLGGRLMIPNTGISLLIPPDAIPRGKIYEIYLTLHKPEDVRLPLAGCQTLLSPIVSCGPPGVLLTRPVILAMDHCGEPSPDSWSLRLKKQSCEGSWEDVLHLGEEAPSHLYYCQLEASACYVFTEQLGRFALVGEALSVAAAKRLKLLLFAPVACTSLEYNIRVYCLHDTHDALKEVVQLEKQLGGQLIQEPRVLHFKDSYHNLRLSIHDVPSSLWKSKLLVSYQEIPFYHIWNGTQRYLHCTFTLERVSPSTSDLACKLWVWQVEGDGQSFSINFNITKDTRFAELLALESEAGVPALVGPSAFKIPFLIRQKIISSLDPPCRRGADWRTLAQKLHLDSHLSFFASKPSPTAMILNLWEARHFPNGNLSQLAAAVAGLGQPDAGLFTVSEAEC	significantly inhibits	inducing	increased	mitigated		
M9^FL: recombinant full length MEGF9 (multiple EGF-like-domains-9); full-length human MEGF9 is SEQ ID NO: 1 (protein, listed as Homo sapiens) MNGGAERAMRSLPSLGGLALLCCAAAAAAAAVASAASAGNVTGGGGAAGQVDASPGPGLRGEPSHPFPRATAPTAQAPRTGPPRATVHRPLAATSPAQSPETTPLWATAGPSSTTFQAPLGPSPTTPPAAERTSTTSQAPTRPAPTTLSTTTGPAPTTPVATTVPAPTTPRTPTPDLPSSSNSSVLPTPPATEAPSSPPPEYVCNCSVVGSLNVNRCNQTTGQCECRPGYQGLHCETCKEGFYLNYTSGLCQPCDCSPHGALSIPCNSSGKCQCKVGVIGSICDRCQDGYYGFSKNGCLPCQCNNRSASCDALTGACLNCQENSKGNHCEECKEGFYQSPDATKECLRCPCSAVTSTGSCSIKSSELEPECDQCKDGYIGPNCNKCENGYYNFDSICRKCQCHGHVDPVKTPKICKPESGECINCLHNTTGFWCENCLEGYVHDLEGNCIKKEVILPTPEGSTILVSNASLTTSVPTPVINSTFTPTTLQTIFSVSTSENSTSALADVSWTQFNIIILTVIIIVVVLLMGFVGAVYMYREYQNRKLNAPFWTIELKEDNISFSSYHDSIPNADVSGLLEDDGNEVAPNGQLTLTTPIHNYKA					clear trend of decreased viral titers	remarkable improvement
